Reference: patent publication US20230111212A1, “MUSCLE TARGETING COMPLEXES AND USES THEREOF FOR TREATING DYSTROPHINOPATHIES” (Dyne Therapeutics, Inc., priority 2020, published 2023)

Assays:
[1] = target: human transferrin receptor 2 (human) (UniProt Q9UP52); assay: ELISA on human TfR2, RFU
[2] = target: human transferrin receptor 1 (human) (UniProt P02786); assay: Carterra LSA at 25C, IgG captured on anti-IgG lawn, hTfR1 injected, 1:1 Langmuir fit
human transferrin receptor 1 (human), sequence (P02786 89-760 limits assumed): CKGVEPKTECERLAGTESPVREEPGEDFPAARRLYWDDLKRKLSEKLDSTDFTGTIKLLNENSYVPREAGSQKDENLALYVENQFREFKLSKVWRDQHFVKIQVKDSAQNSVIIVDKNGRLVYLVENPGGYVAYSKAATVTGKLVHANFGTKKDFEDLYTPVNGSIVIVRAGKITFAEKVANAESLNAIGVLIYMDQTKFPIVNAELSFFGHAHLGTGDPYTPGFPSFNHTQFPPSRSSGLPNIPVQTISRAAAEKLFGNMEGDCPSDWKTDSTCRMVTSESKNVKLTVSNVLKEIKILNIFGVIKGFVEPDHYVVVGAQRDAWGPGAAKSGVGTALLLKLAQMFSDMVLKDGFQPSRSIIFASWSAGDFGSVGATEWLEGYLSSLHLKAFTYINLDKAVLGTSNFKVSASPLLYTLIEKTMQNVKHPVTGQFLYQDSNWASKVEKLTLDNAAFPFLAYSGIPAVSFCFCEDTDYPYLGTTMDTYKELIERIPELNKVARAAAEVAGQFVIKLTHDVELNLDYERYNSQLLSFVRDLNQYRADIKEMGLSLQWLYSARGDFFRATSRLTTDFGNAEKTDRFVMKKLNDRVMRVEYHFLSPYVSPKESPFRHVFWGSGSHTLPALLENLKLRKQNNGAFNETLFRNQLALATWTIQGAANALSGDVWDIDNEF

human transferrin receptor 2 (human), sequence (Q9UP52 105-801 limits assumed): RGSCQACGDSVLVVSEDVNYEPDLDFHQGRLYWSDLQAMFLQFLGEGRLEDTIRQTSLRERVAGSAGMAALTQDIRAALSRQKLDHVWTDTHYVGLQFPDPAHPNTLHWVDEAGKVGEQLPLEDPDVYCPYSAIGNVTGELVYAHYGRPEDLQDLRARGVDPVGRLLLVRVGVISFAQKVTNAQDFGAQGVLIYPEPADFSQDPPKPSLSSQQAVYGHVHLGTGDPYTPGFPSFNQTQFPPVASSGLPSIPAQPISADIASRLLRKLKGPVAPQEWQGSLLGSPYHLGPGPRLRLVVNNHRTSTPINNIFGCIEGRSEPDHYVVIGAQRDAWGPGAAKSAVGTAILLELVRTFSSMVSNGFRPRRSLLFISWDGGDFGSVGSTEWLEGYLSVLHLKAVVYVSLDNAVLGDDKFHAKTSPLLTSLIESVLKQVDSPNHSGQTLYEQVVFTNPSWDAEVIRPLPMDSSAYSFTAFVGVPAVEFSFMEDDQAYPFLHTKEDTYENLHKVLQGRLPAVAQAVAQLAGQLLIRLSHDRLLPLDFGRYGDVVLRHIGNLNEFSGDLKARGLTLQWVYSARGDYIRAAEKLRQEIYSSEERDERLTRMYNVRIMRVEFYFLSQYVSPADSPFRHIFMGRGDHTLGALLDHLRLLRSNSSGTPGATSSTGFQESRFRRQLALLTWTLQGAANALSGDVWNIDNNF

EC50 (read off the curve) [1]	Kd [2]	kon [2]	Substance
2 nM			TfR2 Monoclonal Antibody (OTI1B1)
	0.536 nM	774000 M⁻¹ s⁻¹	OKT9 mIgG (antibody)
